# B1: anti-C3d mouse/human chimeric antibody C8D3 (antibody, V domains shown)
# VH: QAYLQQSGAELVRPGASVKMSCKASGYTFTSYYMHWVKQTPRQGLEWIGAIYPGNGDTSYNQKFKGKATLTVDKSSSTAYMQLSSLTSEDSAVYFCAKGFDYWGQGTTVTVSS
# VL: DVVMTQTPLSLPVSLGDQASISCRSSQSLVYSNGNTYLHWYLQKPGQSPKLLIYKVSNRFSGVPDRFSGSGSGTDFTLKISRVEAEDLGVYFCSQSTHVPYTFGGGTKLEIKR
# notes: also called chimeric C8D3; chimeric C8D3 mAb
# What was measured:
# [1] = target: T1, human complement protein C3d (human, UniProt P01024 1002-1303); assay: avidity; antibody titration on C3d-opsonised CLL patient cells, 'OFA 24 h' sample (FIG. 9); apparent KD (avidity) on C3d-opsonized CLL cells, OFA 24 h sample
# T1 construct: domain: C3d; The assay field of each row says which; also called C3d antigen; C3d protein
# [2] = target: T1, human complement protein C3d; assay: flow cytometry (MFI) on CLL cells taken 24 h after ofatumumab infusion (C3d-opsonised)
# [3] = target: T1, human complement protein C3d; assay: PEPperCHIP microarray of 15-aa C3d peptides
# Excerpt: The epitopes on C3d were mapped using PEPperCHIP technology (PEPperPRINT GmbH, Heidelberg, Germany). In brief, 15 amino acid (aa) long peptides with 14 aa overlaps were synthesized based on the C3d aa sequence and immobilized in duplicate on microarray chips. […] The microarrays were read using the LI-COR Odyssey Imaging System and then analyzed using PepSlide® Analyzer software.
# [4] = target: T1, human complement protein C3d; assay: surface plasmon resonance (Biacore 3000), C3d immobilised, Fab at 0.5, 2.5, 5, 25 and 50 nM
# [5] = target: B1; assay: competition: C8D3 binding to C3d antigen (MFI) with increasing amounts of peptide
binder,measurement,setting,value
B1,Kd,[1],6.7 nM
same,EC50 (read off the curve),[2],~40 nM
"murine anti-C3d hybridoma clone C6 (antibody, V domains shown, Murine IgG1, kappa) VH: QAYLQQSGAELVRPGASVKMSCKASGYTFTSYYMHWVKQTPRQGLEWIGAIYPGNGDTSYNQKFKGKATLTVDKSSSTAYMQLSSLTSEDSAVYFCAKYGSGYWGQGTTVTVSS VL: DVVMTQTPLSLPVSLGDQASISCRSSQSLVYSNGNTYLHWYLQKPGQSPKLLIYKVSNRFSGVPDRFSGSGSGTDFTLKISRVEAEDLGVYFCSQSTHVPYTFGGGTKLEIKR",binding result,[3],binds
"anti-C3d Fab of chimeric antibody C8D3 (Fab, V domains shown) VH: QAYLQQSGAELVRPGASVKMSCKASGYTFTSYYMHWVKQTPRQGLEWIGAIYPGNGDTSYNQKFKGKATLTVDKSSSTAYMQLSSLTSEDSAVYFCAKGFDYWGQGTTVTVSS VL: DVVMTQTPLSLPVSLGDQASISCRSSQSLVYSNGNTYLHWYLQKPGQSPKLLIYKVSNRFSGVPDRFSGSGSGTDFTLKISRVEAEDLGVYFCSQSTHVPYTFGGGTKLEIKR",Kd,[4],17 nM
QYQKDAPDHQELNLDVSLQLPSR [epitope 3 derived peptide],binding result,[5],binds
